± gives the standard error.
B1: library; numbered along this chain (parent)
chain: MATDAALRRLLRLHRTEIAVAVDSAFPLLHALADHDVVPEDKFQETLHLKEKEGCPQAFHALLSWLLTQDSTAILDFWRVLFKDYNLERYGRLQPILDSFPKDVDLSQPRKGRKPPAVPKALVPPPRLPTKRKASEEARAAAPAALTPRGTASPGSQLKAKPPKKPESSAEQQRLPLGNGIQTMSASVQRAVAMSSGDVPGARGAVEGILIQQVFESGGSKKCIQVGGEFYTPSKFEDSGSGKNKARSSSGPKPLVRAKGAQGAAPGGGEARLGQQGSVPAPLALPSDPQLHQKNEDECAVCRDGGELICCDGCPRAFHLACLSPPLREIPSGTWRCSSCLQATVQEVQPRAEEPRPQEPPVETPLPPGLRSAGEEVRGPPGEPLAGMDTTLVYKHLPAPPSAAPLPGLDSSALHPLLCVGPEGQQNLAPGARCGVCGDGTDVLRCTHCAAAFHWRCHFPAGTSRPGTGLRCRSCSGDVTPAPVEGVLAPSPARLAPGPAKDDTASHEPALHRDDLESLLSEHTFDGILQWAIQSMARPAAPFPS

Variants of: B1
Experiment: AIRE transcriptional activation functional score (insulin promoter-GFP; nonsense median 0, synonymous median 1) (normalised score); higher = higher AIRE activity (more reporter activation)
Settings: with insulin promoter-GFP reporter in HEK293
Description: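 Deep mutational scan of full-length human AIRE (codon-optimized cDNA, DT-POPCode NNN libraries over three regions) integrated at a Bxb1 landing pad in HEK293 cells carrying an insulin core promoter-GFP reporter at a Flp-In site. Cells were sorted for the top 10% GFP about 14 days after transfection. Variant frequency log-ratios (select vs non-select, TileSeq) were rescaled so that the nonsense median is 0 and the synonymous median is 1, then averaged over biological replicates.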

AIRE transcriptional activation functional score of substitutions, site by site:
A170: T 0.748 ± 0.48; Y 2.08 ± 0.5; G 0.778 ± 0.51; F 1.69 ± 0.33; S 0.78 ± 0.85; R 1.29 ± 0.37; P 0.929 ± 0.39; D 0.761 ± 0.51; M 0.0569 ± 0.083; W 1.84 ± 0.11; N 1.2 ± 0.4; L 0.356 ± 0.53; K 1.97 ± 0.053; E 0.67 ± 0.35; Q 0.496 ± 1.3; C 1.24 ± 0.41; H 1.86 ± 0.43; V 0.782 ± 0.44; I 0.784 ± 0.32
P166: M 1.41 ± 0.054; L 0.95 ± 0.49; W -0.356 ± 0.47; F 1.94 ± 0.29; V 0.921 ± 0.76; K -0.231 ± 0.21; N 1.41 ± 0.1; A 1.16 ± 0.69; D 0.983 ± 0.71; Y 1.19 ± 0.33; E -0.713 ± 0.29; R 0.947 ± 0.72; C 1.43 ± 0.72; I 1.24 ± 0.54; T 1.36 ± 0.56; Q 1.16 ± 0.41; S 0.939 ± 0.27; G 1.61 ± 0.69; H 1.95 ± 0.16
S168: H 1.23 ± 0.37; L 0.825 ± 0.32; G 0.755 ± 0.42; F 1.44 ± 0.11; V 0.761 ± 0.57; Q 0.489 ± 0.33; A 0.888 ± 0.66; E 0.606 ± 0.34; C 1 ± 0.57; P -0.113 ± 0.67; M 1.47 ± 0.27; D 0.307 ± 0.097; T 1.06 ± 0.4; Y 1.37 ± 0.18; R 1.36 ± 0.38; K 1.08 ± 0.18; W 1.46 ± 0.22; I 0.348 ± 0.5; N 0.613 ± 0.67
K161: L 1.14 ± 0.52; T 0.898 ± 0.54; R 1.55 ± 0.51; Q 0.799 ± 0.26; M 0.88 ± 0.068; P 0.742 ± 0.53; S 0.458 ± 0.68; H 0.866 ± 0.53; G 1.56 ± 0.57; F 1.69 ± 0.18; I 1.27 ± 0.34; E 0.442 ± 0.38; V 1.11 ± 0.33; N 0.888 ± 0.32; Y 0.674 ± 0.45; W 0.29 ± 0.037; C 1.56 ± 0.32; A 0.612 ± 0.43; D 1.13 ± 0.7
Q172: S 0.645 ± 0.63; A 0.74 ± 0.7; P 0.611 ± 0.23; R 1.46 ± 0.51; E 0.286 ± 0.3; N 0.691 ± 0.23; F 1.82 ± 0.32; G 0.609 ± 0.35; L 1.55 ± 0.33; I 2.08 ± 0.26; W 1.71 ± 0.064; H 1.81 ± 0.24; T 1.56 ± 1.1; V 1.18 ± 0.13; D 1.14 ± 0.11; C 1.13 ± 0.49; K 0.844 ± 0.4; M 2.4 ± 0.11; Y 1.7 ± 0.64
L175: R 1.06 ± 0.47; Q 1.1 ± 0.28; E -0.0357 ± 0.4; C 0.818 ± 0.68; D 1.04 ± 0.98; T 0.916 ± 0.35; Y 1.5 ± 0.28; P 0.463 ± 0.91; S 0.686 ± 0.34; F 1.16 ± 0.46; H 1.33 ± 0.61; K 0.766 ± 0.2; A 0.583 ± 0.43; W 1.8 ± 0.038; V 0.629 ± 0.38; M 1.05 ± 0.1; N 0.295 ± 0.16; G 0.614 ± 0.4; I 0.709 ± 0.34
P162: H 2.88 ± 0.062; M 0.548 ± 0.41; V 0.356 ± 0.46; N -1.7 ± 0.52; Q 1.54 ± 0.23; Y 2.9 ± 0.096; A 0.796 ± 0.87; W 1.26 ± 0.46; F 1.37 ± 0.11; T 0.633 ± 0.6; G 1.1 ± 0.26; L 1.04 ± 0.9; E 0.27 ± 0.49; S 0.476 ± 0.69; R 0.224 ± 0.29; I 1.97 ± 0.41; C 1.41 ± 0.097
P163: H 0.674 ± 0.3; N 1.73 ± 0.28; Y 1.53 ± 0.24; R 0.66 ± 0.53; E 0.136 ± 0.17; W 2.35 ± 0.1; Q 1.05 ± 0.86; M 0.889 ± 0.24; F 0.944 ± 0.13; V 0.445 ± 0.58; D -0.123 ± 0.17; T 0.923 ± 0.82; I 1.05 ± 0.22; S 1.3 ± 0.47; K 1.29 ± 0.082; C 1.48 ± 0.27; L 0.899 ± 0.46; A 0.36 ± 0.6; G 0.723 ± 0.95
P176: V 1.54 ± 0.26; H 1.07 ± 0.25; Y 1.88 ± 0.23; S 1.4 ± 0.46; D -0.465 ± 0.61; N 0.411 ± 0.54; K 1.33 ± 0.44; L 1.6 ± 0.3; E 0.297 ± 0.71; C 2.34 ± 0.29; T 0.957 ± 0.38; A 1.33 ± 0.48; R 1.63 ± 0.56; G 0.765 ± 0.56; W 1.08 ± 0.08; I 1.65 ± 0.34; F 1.46 ± 0.3

Reference: the supplement of paper PMC12667976
